{"source": "the nanobody polyreactivity screen of Harvey et al. (2022)"}
{"test": "yeast display, Sf9 membrane polyspecificity reagent, FACS + sequencing; frameworks hold sequencing errors", "procedure,_shortened": "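Galactose induction of a Saccharomyces cerevisiae BJ5465 synthetic nanobody display library ran 36–48 hours. The cells were then stained for 1 hour at 4 °C with 10% biotinylated, detergent-solubilized Sf9 membrane reagent, pulled down on streptavidin microbeads and FACS-sorted into low and high (top ~1%) gates on expression and reagent-binding fluorescence. Labels for polyreactivity follow the gate of origin.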"}
{"sequence": "QVQLVESGGGLVQAGGSLRLSCDASGSIFDPYAMGWYRQAPGKERELVAGISFSGGRTYYADSVKGRFTISRDNAKNTVYLQMNSLKPEDTAVYYCKKLLTQGAYPYYYWGQGTQVTVSS", "polyreactivity (PSR sort gate)": "high polyreactivity"}
{"sequence": "QVQLVESGGGLVQAGGSLRLSCAASGRIFGYYAMGWYRQAPGKERELVAAITSGGRTYYADSVKGRFTISRDNAKNTVYLHMNSLKPEDTAVYYCAAVRALRKVRDYYYWGQGTQVTVSS", "polyreactivity (PSR sort gate)": "high polyreactivity"}
{"sequence": "QVQLVESGGGLVQAGGSLRFSCAASGSIFSLNTMGWYRQAHGKERELVAAITRGGSTYYADSVKGRFTISRDNAKNTVYLQMNSLKPEDTAVYYCAAVPGGNISAPYDYWGQGTQVTVSS", "polyreactivity (PSR sort gate)": "high polyreactivity"}
{"sequence": "QVQLVESGGGLVQAGGSLRLSCAASGYIWCYAMGWDRQAPGKEWELVAAISWGGGSTYYADSVKGRFTISRDNAKNTVYLQMNSLKREDTAVYYCAAVDAVGPTSHAMYYWGLGTQVTVSS", "polyreactivity (PSR sort gate)": "low polyreactivity"}
{"sequence": "QVQLVESGGGLVQAGGSLRLSCAASGYTFGIYAMGWYRQAPGKAREFVAAIRWSDTSTSYADSVKWRFTISRDNAKNTVYLQMNSLKPEDTAVYNCAADTFYLYDYWGQGTQVTVSS", "polyreactivity (PSR sort gate)": "low polyreactivity"}
{"sequence": "QVQLVESGGGLVKAGGILRLSCAASGSIFGRYVMGWYRPAPGKEREVVAAINRSGGRTYYADSVKGRFSISRDNAKYTVYLQMNSLKPEDTAVYYCATYTGSSASKEVPYDYWGQGTQVTVSS", "polyreactivity (PSR sort gate)": "high polyreactivity"}
{"sequence": "HVQLVESGGGLVQAGGSLRLSCAASGRTFGAYTMGWYRQAPGKERELVAAINWSGGDTYYAYSVKGRFTISRDNAKNTVYLQMNSQKPEDTAVYYCNAEPRYGTYDYWGQGTQVTVSS", "polyreactivity (PSR sort gate)": "low polyreactivity"}
{"sequence": "QVQLVESGGGLVQAGGSLRLSCAASGFIFYHYAMGWYRQAPGKARELVAAISGRGGSTYYADSVKGRFTISRDNAKNTVYLQMNSLKPEDTAVYYCATDRQRADYYWGQGTQVTVSS", "polyreactivity (PSR sort gate)": "high polyreactivity"}
{"sequence": "QVQLVESGGGLVQAGGSLRLSCAASVRIFGVYAMGWYRQAPGKERELVAAITSGGSTTYADSVKGRFTISRDNAKNTVYLQMNSLKPEDTAVYYCNKEPQPFFLYGYWGQGTQVTVSS", "polyreactivity (PSR sort gate)": "low polyreactivity"}
{"sequence": "QVQLVESGGGLVLAGGSLRLSCAASGSTFFTNVMGWNRQAPGKERELVASITSGGSTNYADSVKGRFTITRDNAQNTVYLQMNSLKPEDTAVYYCAAVTRTITIYELDSWGQGTQVTVSS", "polyreactivity (PSR sort gate)": "low polyreactivity"}
{"sequence": "QVQLVESGGGLLQAGGSLRLSCASSGSTFGGNAMGRYRQAPGKERELVAAITVGGDSTYYADSVKGRFTISRDNAKNTVYLQMNSLKPEDTAVYYCNASNVYFWFVTLEFDYWGQGTQVTVSS", "polyreactivity (PSR sort gate)": "low polyreactivity"}
{"sequence": "QVQLVESGGGLVQAGGSLRLSCAASGRIFRGNGMGWYRQAPGKERELVAAINYSGASTYYADSVKGRFTISRDNAKNTVYLQMNSLKPEDTAVYYCARAWFYRGGEGWLESYIVSGDYWGQGTQVTVSS", "polyreactivity (PSR sort gate)": "low polyreactivity"}
{"sequence": "QLQLEESAGGLVQAGGSLRLSCAASGSIFSDNAMGWYRQAPGKERELVASINSGGSTNYADSVKGRFTISRDNAKNTVYLQMNSLKPEYTAVYYFNKEDEVVYPGYPNGGMDYWGQGTQVTVSS", "polyreactivity (PSR sort gate)": "low polyreactivity"}
{"sequence": "QVQLVESGGGLVQAGGSLRLSCAASGSTSKGYAMGGYRQAPGKDRELVAAISAGGGRTYYADSVKGRFTISRENAKNTVYLQMNSLKPEDTAVYYCANAGTIYQSPREYWGQGTQVTVSS", "polyreactivity (PSR sort gate)": "high polyreactivity"}
{"sequence": "QVQLVESGGGLVQAGGSLRLSCAASGSTIFSYAMGWYRQAPGKERELVAAITYRSSRTYYADSVKGRFTISRDNAKNTVYLQMNSLKPEDTAVYYCAAGYFSYRRYDYWGQGTQVTVSS", "polyreactivity (PSR sort gate)": "high polyreactivity"}
{"sequence": "QVQLVESGGGLVQAGGSLRLSCAASGFTIRRNAMGWYRQAPGKERELVAAISRSGGSTYADSVKGRFTISRDNAKNTVYLQMNSLKPEDTAVYYFASDHSDYRYTYTALIAEFYYWGQGTQVTVSS", "polyreactivity (PSR sort gate)": "low polyreactivity"}
{"sequence": "QVQLVESGGGLVPAGGSLRLSCPAGGFIFGSNVMGWYRQAPGKEREFVAAITYGGVSTYYADSVKGRFTISRDNAKNTVYLQMNSLKPEDTAVYYCNTDRGKRLGKQASSKRYDYWGQGTQVTVSS", "polyreactivity (PSR sort gate)": "high polyreactivity"}
